Results on one molecule are retold here after article PMC3477848 (Biochemistry, 2012).

Where two headings read alike, the source gives them in different places.

What all share (experiment): fluorescence anisotropy
Series [1] has as its target T1, Dpo1 exo- (SsoDpo1, B-family DNA polymerase) (Sulfolobus solfataricus, UniProt P26811 1-882, D231A;D318A).
T1 sequence: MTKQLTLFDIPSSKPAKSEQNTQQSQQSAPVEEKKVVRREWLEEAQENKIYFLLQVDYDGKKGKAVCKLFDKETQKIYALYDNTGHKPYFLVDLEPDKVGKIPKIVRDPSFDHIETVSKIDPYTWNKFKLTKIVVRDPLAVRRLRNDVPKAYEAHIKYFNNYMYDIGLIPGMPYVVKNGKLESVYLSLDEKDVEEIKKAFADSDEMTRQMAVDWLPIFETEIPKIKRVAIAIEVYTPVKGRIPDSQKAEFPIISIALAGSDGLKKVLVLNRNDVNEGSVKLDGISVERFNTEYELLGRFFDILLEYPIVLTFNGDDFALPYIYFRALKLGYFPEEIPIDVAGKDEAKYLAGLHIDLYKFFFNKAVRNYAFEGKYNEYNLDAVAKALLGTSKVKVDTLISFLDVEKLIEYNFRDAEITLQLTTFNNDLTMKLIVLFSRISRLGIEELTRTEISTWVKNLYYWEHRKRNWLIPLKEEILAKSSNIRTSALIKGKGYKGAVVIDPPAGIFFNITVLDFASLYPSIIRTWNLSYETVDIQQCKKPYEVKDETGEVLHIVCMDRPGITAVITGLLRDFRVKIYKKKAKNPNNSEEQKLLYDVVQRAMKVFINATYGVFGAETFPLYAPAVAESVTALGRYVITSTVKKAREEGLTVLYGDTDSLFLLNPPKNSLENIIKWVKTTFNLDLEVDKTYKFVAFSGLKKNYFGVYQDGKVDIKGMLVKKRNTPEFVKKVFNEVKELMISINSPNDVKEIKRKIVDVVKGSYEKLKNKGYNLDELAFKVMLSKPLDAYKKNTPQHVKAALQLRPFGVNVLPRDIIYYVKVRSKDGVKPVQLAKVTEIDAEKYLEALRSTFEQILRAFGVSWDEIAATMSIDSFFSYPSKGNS

Series [2] deals with T1, Dpo1 exo- (SsoDpo1, B-family DNA …). This is another data set of the same source.
The target in series [3] is T2, Dpo4 (SsoDpo4, Y-family DNA polymerase) (Sulfolobus solfataricus, UniProt Q97W02 1-352).
T2 sequence: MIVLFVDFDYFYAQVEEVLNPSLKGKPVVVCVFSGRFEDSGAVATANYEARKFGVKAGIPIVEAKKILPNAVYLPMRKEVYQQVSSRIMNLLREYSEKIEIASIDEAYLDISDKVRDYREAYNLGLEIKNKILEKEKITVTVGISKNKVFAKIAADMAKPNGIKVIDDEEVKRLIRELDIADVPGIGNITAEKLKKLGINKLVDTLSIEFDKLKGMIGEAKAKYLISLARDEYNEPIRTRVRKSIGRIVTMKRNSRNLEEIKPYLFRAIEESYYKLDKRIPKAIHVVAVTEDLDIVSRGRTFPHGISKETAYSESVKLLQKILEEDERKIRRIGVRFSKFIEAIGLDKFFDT

Series [4] has as its target T2, Dpo4 (SsoDpo4, Y-family DNA polymerase). This is another data set of the same source.
Series [5] has as its target T1, Dpo1 exo- (SsoDpo1, B-family DNA …). This is another data set of the same source.
Series [6] shares this target. This is another data set of the same source.
For series [7], the target named is T2, Dpo4 (SsoDpo4, Y-family DNA polymerase). This is another data set of the same source.

B1: 37-nt hairpin primer-template, 5'-Cy3 (structured_DNA)
DNA: TTTTTTTTTTCCCGGGCCGGCGTTTCGCCGGCCCGGG
Regarding B1, the Kd in series [1] was determined as 109 ± 16 nM; in series [2], 97 ± 3 nM; in series [3] it was 133 ± 26 nM; in series [4], 125 ± 51 nM; in series [5], 144 ± 15 nM; in series [6], 198 ± 26 nM. The same molecule yielded a Kd in series [7] of 674 ± 80 nM.
